The source of these data is patent US20140044730A1 (Regeneron, published 2014).

As a reminder, the IC50 is the point on the concentration scale where inhibition reaches its midpoint. The low end stands for greater potency in that assay, the high end for weaker potency in that assay. By Kd is commonly meant a measure of binding affinity in units of concentration. High values mean weaker binding, low ones tighter binding. The koff is the first-order rate constant of dissociation. The kon is the rate constant with which the complex forms. As usually defined, the t½ is the time in which the quantity being followed falls by half. Read a high t½ as slow decline.

Test [1] concerns the target T1, human PCSK9 with a C-terminal myc-myc-hexahistidine tag (human, UniProt Q8NBP7 31-692, limits assumed).
T1 construct: also called hPCSK9-mmH; hPCSK9-mmh; not shown: C-terminal myc-myc-hexahistidine tag
Briefly: SPR (Biacore), 37 °C; antibody captured on anti-human Fc surface, hPCSK9-mmH injected (3.125-50 nM); association at pH 7.4, dissociation at pH 7.4. A general note: Surface plasmon resonance follows binding to a sensor surface in real time, without labels.

In test [2] the target is T1, human PCSK9 with a C-terminal …. Briefly: SPR (Biacore), 37 °C; antibody captured on anti-human Fc surface, hPCSK9-mmH injected (3.125-50 nM); association at pH 7.4, dissociation at pH 7.2.
Method: All experiments were carried out at 37° C.
(§1) A Biacore CM4 sensor chip was derivatized with a Fab′2 polyclonal anti-human Fc antibody to capture human antibodies. […] Dissociation (kd) rate constants were determined by processing and fitting the data using Scrubber version 2.0 curve fitting software. Dissociative half-lives (t_{1/2}) were calculated from the dissociation rate constants as: t_{1/2} (min)=(In2/kd)/60.
Test [3] has the same target. Briefly: blocking ELISA pH 7.2, 500 pM hPCSK9-mmH vs coated hLDLR EGFA-hFc, exp #2.
From the text: The equilibrated sample solutions were then transferred to the LDLR EGFA-hFc coated plate prepared as described above.
Test [4] shares this target. Briefly: SPR 25C pH 6.0, purified mAb captured.
Method: (§2) A Biacore CM4 sensor chip was derivatized with a monoclonal mouse anti-human Fc antibody to capture human antibodies. The histidine substitution variant anti-PCSK9 antibodies were captured onto the anti-human Fc sensor surface from culture medium after transient expression in Chinese hamster ovary (CHO) cells. […] Kinetic association (kₐ) and dissociation (kd) rate constants were determined by processing and fitting the data to a 1:1 binding model using Scrubber 2.0 curve fitting software. Binding dissociation equilibrium constants (KD) and dissociative half-lives (t_{1/2}) were calculated from the kinetic rate constants as: KD (M)=kd/kₐ; and t_{1/2} (min)=(In2/(60*kd).
(§3) Also included in these experiments were several control/comparator antibodies. All measurements were taken at 25° C.
The target is the same in test [5]. Put plainly: blocking ELISA, hPCSK9-mmH vs coated hLDLR EGFA-hFc; non-blocking at pH 5.75.
Method: (§4) Briefly, hLDLR EGFA-hFc was coated at 2 μg/mL in PBS on a 96-well microtiter plate overnight at 4° C. followed by blocking with a solution of 0.5% (w/v) BSA in PBS.
(§5) The equilibrated sample solutions were then transferred to a LDLR EGFA-hFc coated plate.
The target is the same in test [6]. Put plainly: blocking ELISA pH 7.2, 500 pM hPCSK9-mmH vs coated hLDLR EGFA-hFc.
Method: as §4, §5
For test [7] the target is unchanged. Briefly: SPR 25C, purified mAb captured.
Method: as §2, §3
The target is the same in test [8]. Briefly: SPR 25C pH 7.4, purified mAb captured.
Method: as §2
All measurements were taken at 25° C.
The target is the same in test [9]. Put plainly: SPR (Biacore), 37 °C; antibody captured on anti-human Fc surface, hPCSK9-mmH injected (3.125-50 nM); association at pH 7.4, dissociation at pH 6.0.
Method: as §1
Test [10] has the same target. Briefly: SPR (Biacore), 37 °C; antibody captured on anti-human Fc surface, hPCSK9-mmH injected (3.125-50 nM); association at pH 7.4, dissociation at pH 5.75.
Method: as §1

B1: VH-D106H/VK-L30H (antibody, IgG4, V domains shown)
VH: EMQLVESGGGLVQPGGSLRLSCAASGFTFSSHWMKWVRQAPGKGLEWVANINQDGSEKYYVDSVKGRFTISRDNAKNSLFLQMNSLRAEDTAVYYCARDIVLMVYHMDYYYYGMDVWGQGTTVTVSS
VL: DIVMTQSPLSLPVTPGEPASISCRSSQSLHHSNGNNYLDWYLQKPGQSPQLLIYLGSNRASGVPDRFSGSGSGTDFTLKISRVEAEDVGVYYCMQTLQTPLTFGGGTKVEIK
notes: double His variant of 300N; also called VH-D106/VK-L30H; VH-D016H/VK-L30H
Regarding B1, the “t½ (dissociative half-life)” value in [1] was determined as 8.7 min. For the same molecule, in test [2], the “t½ (dissociative half-life)” value was 8.9 min. In addition, in [3], it took 0.461 nM to reach half-maximal inhibition (IC50). Moreover, in test [4], the dissociation constant (Kd) came to 42.1 nM, the koff came to 0.0079 s⁻¹, the kon is 186000 M⁻¹ s⁻¹ and the t½ came to 1.5 min. In test [5], the “IC50 ratio (pH 5.75/pH 7.2)” value was > 500. Half-maximal inhibition in test [6] (IC50) was put at 0.354 nM. In [7], the “KD ratio pH 6.0/pH 7.4” value was determined as 15.7, the “ka ratio pH 6.0/pH 7.4” value was 1.79, the “kd ratio pH 6.0/pH 7.4” value came out at 28.4 and the “t½ ratio pH 6.0/pH 7.4” value came out at 0.04. Moreover, in test [8], binding was characterised by a dissociation constant (Kd) of 2.68 nM, the koff came out at 0.000278 s⁻¹, the kon came out at 104000 M⁻¹ s⁻¹ and the t½ came out at 41.5 min. Further, the “t½ (dissociative half-life)” value in [9] amounted to 0.2 min. For the same molecule, in [10], the “t½ (dissociative half-life)” value came to 0.1 min.
